Results on 27 sequences are retold here after the supplement of paper PMC9170038.

The subject of the data set is MS2 coat protein. As to the kind of experiment: apparent KD of MS2 coat protein; designed switch direction (-1 OFF switch, 1 ON switch): 1; higher = weaker reporter binding. Put shortly: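 SNAP-549-labelled MS2 coat protein was titrated, doubling from 0.7 or 1.5 nM to 3 µM, over designed RNA switches transcribed on Illumina chips by stalled E. coli RNA polymerase. Runs were done without input, with 200 uM small-molecule ligand, or with an oligonucleotide input. Apparent KD is the per-design median over clusters of curve-fitted normalised fluorescence.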

Setting [1] is: Eterna round: R95, input ligand: FMN 200 uM.
The mark [2] stands for this setting: Eterna round: R95, input ligand: microRNA oligo, concentration not stated.
Setting [3] is: Eterna round: R95, input ligand: none.
Setting [4] is: input ligand: microRNA oligo, concentration not stated.

On to “CUCAAAACAAGUUGCAGUGUUCGUCUUUCACAUGAGGAUCACCCAUGUAAUAGCCCAGUGGAAGCGCUCGGGCCACC [Ditixe] (puzzle: Sensor for hsa-mir-208a)”, for which the “apparent KD of MS2 coat protein” value under setting [1] worked out at 55.3 nM, the “apparent KD of MS2 coat protein” value under setting [2] was found to be 28.9 nM and the “apparent KD of MS2 coat protein” value under setting [3] turned out to be 47.4 nM.
With “CUCAAACAUGAGGAUCACCCAUGUGUUGUCAUGGGAGGAUAUCCCAGUUCGUUGUAGUCGGGAGAAGGCCUAUGUC [× ×•×ª×• ×ž×“×™× ×” × ×—×ª-13] (puzzle: Same State 1)”, the “apparent KD of MS2 coat protein” value under setting [2] was determined as 54.9 nM.
On to “CUCACAUGGGUAGGAUAUCUAGGAUAUGGGAAAGACUAAGUCUGUAGGUCACCUAACCCAGAUGGAGAGAAGGACCCAACACUC [pwkr ssNG2 2FMN + F9.37] (Eterna round: R96, puzzle: Same State NG 2)”, for which the “apparent KD of MS2 coat protein” value is, setting by setting: (input ligand: FMN 200 uM) 32.4 nM; under setting [4], 7.81 nM; (input ligand: none) 9.82 nM.
In the same order, the values of “CUCGUAUCGGGAGGAUAUGGUGCCUUGUUGGUGCUAGAAGGUCCAACAUGAGGAUCACCCAUGUGCGAGUGGUUGAGAGACCGG [SS NG10LRO15] (Eterna round: R96, puzzle: Same State NG 1)” are 336 nM, 230 nM and 399 nM.
The matching figures for “CUCGUAUCGGGAGGAUAUGGUGCCUUGUUGGUGCUAGAAGGUCCAACAUGAGGAUCACCCAUGUGCGAGUGGUUGAGAGACCUC [SS NG10LRO14] (Eterna round: R96, puzzle: Same State NG 1)”: 708 nM, 506 nM and 1000 nM.
Take “CUGAGCAGUCAAGGAUAUCACGUCGAUUAGACGUGAGAAGGUGACCAAUACAUGAGGAUCACCCAUGUAAUACAUGAAGCUCAG [SSNG1/12-A2] (Eterna round: R96, puzzle: Same State NG 1)”: the “apparent KD of MS2 coat protein” value reads like this: (input ligand: FMN 200 uM) 20.4 nM; under setting [4], 28.5 nM; (input ligand: none) 39.5 nM.
In the same order, the values of “CUGAGCGAUCUAGGAUAUCACGUCGUUUAGACGUGAGAAGGAGAUCAUAACAUGAGGAUCACCCAUGUAUUACAUGAAGCUCAG [SSNG1/6-A3] (Eterna round: R96, puzzle: Same State NG 1)” are 14.9 nM, 16.9 nM and 19.1 nM.
The matching figures for “CUGAGCGAUUAAGGAUAUCACGUCGUUUAGACGUGAGAAGGUGAUCAUAACAUGAGGAUCACCCAUGUAUUACAUGAAGCUCAG [SSNG1/3-A3] (Eterna round: R96, puzzle: Same State NG 1)”: 614 nM, 98.1 nM and 128 nM.
Turning to “CUGUAUCGCGGAGGAUAUGGGCUGAGACCAGGACAACCCUGGUCAACAUGAGGAUCACCCAUGUCCCAGAAGGCCGCGAUGCUA [Zazalaonor] (Eterna round: R96, puzzle: Same State NG 2)”, the “apparent KD of MS2 coat protein” value is, setting by setting: (input ligand: FMN 200 uM) 16.1 nM; under setting [4], 97.3 nM; (input ligand: none) 108 nM.
In the same order, the values of “CUUUUUAAUGCAGGAUAUGAUCAACAUGAGGAUCACCCAUGUGGCGUUGUGAGUAAGGAGAGUGAUCAGAAGGGCAUCUCCUCA [SS-NG2-LRO07] (Eterna round: R96, puzzle: Same State NG 2)” are 57.5 nM, 54.5 nM and 45.8 nM.
For the sequence “GACAAUCUAUCUGAGGAUAUCAUGAAGAAAACAUGAGGAUCACCCAUGUGCAGGAUAACUGCAAAUGAGAAGGCAGAUAGAUUGU [Mat - Same State 2 - Mod - D6] (puzzle: Same State 2)”, the “apparent KD of MS2 coat protein” value runs as follows: under setting [1], 17.1 nM; under setting [2], 17.8 nM; under setting [3], 22.4 nM.
Turning to “GAGAGAGGGUGAGGAUAUGGAGUAAUAAUGAUACCAGAAGGCACAGACAUGAGGAUCACCCAUGUGGGAAUAAUCCAGAGAGAG [Parity 7 - Jieux - Same State NG 1] (Eterna round: R96, puzzle: Same State NG 1)”, the “apparent KD of MS2 coat protein” value was found to be 506 nM (input ligand: FMN 200 uM), 177 nM under setting [4] and 264 nM (input ligand: none).
The matching figures for “GAGAGAUGGCUAGGAUAUUCGGUGAUAAUGAUAGAAGAAGGAGCUGACAUGAGGAUCACCCAUGUGGGAAUAAUCCAGAGAGAG [Parity 19 - Jieux - Same State NG 1] (Eterna round: R96, puzzle: Same State NG 1)”: 167 nM, 56.1 nM and 96.7 nM.
In the same order, the values of “GAGCCAGUCCGAGGAUAUUCAUAUUAAAUACAUGAGGAUCACCCAUGUAGGCUCAGAGAGCCUUGGGAGAAGGCGGACUGGCUC [Xeonanisa>>1] (Eterna round: R96, puzzle: Same State NG 2)” are 24.9 nM, 63.6 nM and 113 nM.
The matching figures for “GAGCUCGUGUGAGGAUAUGCCGCCGUUUCGGCUGCAGAAGGUGCUACGUUACAUGAGGAUCACCCAUGUCUCUGUUGUUUCGUG [salish99_SSNG1_r04_958] (Eterna round: R96, puzzle: Same State NG 1)”: 23.5 nM, 20.4 nM and 21.9 nM.
Take “GAGCUCGUGUGAGGAUAUGCCGCCGUUUCGGCUGCAGAAGGUGCUACGUUACAUGAGGAUCACCCAUGUCUCUGUUGUUUCGUU [salish99_SSNG1_r04_959] (Eterna round: R96, puzzle: Same State NG 1)”: the “apparent KD of MS2 coat protein” value is 18.5 nM (input ligand: FMN 200 uM), 17 nM under setting [4] and 24.9 nM (input ligand: none).
In the case of “GAGGAACAUGAGGAUCACCCAUGUAGGAUGGGACAAGGAUAUGUAGAUAGCGGAGGAGAGACAGAAGGUGUAGGAA [JR_SS1_Sub053] (puzzle: Same State 1)”, the “apparent KD of MS2 coat protein” value is, setting by setting: under setting [1], 354 nM; under setting [2], 431 nM; under setting [3], 483 nM.
For the sequence “GAGGGACAGACCAACAUGAGGAUCACCCAUGUCCUCGCAGGUCAGGAUAUUAUUAGGAUCACCAGUGAGAAGGGACGGUGAAGG (Eterna round: R96, puzzle: Same State NG 3)”, the “apparent KD of MS2 coat protein” value came to 366 nM (input ligand: FMN 200 uM), 227 nM under setting [4] and 521 nM (input ligand: none).
As to “GAGGGACAGACCAACAUGAGGAUCACCCAUGUCCUCGCUGGUCAGGAUAUCCCGCCAACAGGCGAGGAGAAGGGACGGUGAACC (Eterna round: R96, puzzle: Same State NG 3)”, the “apparent KD of MS2 coat protein” value worked out at 1110 nM (input ligand: FMN 200 uM), 425 nM under setting [4] and 724 nM (input ligand: none).
“GAGGGACAUGAGGAUCACCCAUGUGGUAAAUUUAAAGGAUAUUAGUGUGGGAAAGUAGGGUAAGAAGGUUGAUUGG [JR_SS1_Sub086] (puzzle: Same State 1)”: the “apparent KD of MS2 coat protein” value under setting [2] is 87.7 nM.
As to “GAGUAGGACUUACAGGAUAUAUGGAGGUUGACAUGAGGAUCACCCAUGUCUGAGUUGGGAGGAGGAUAGAAGGGUAUGAGAGGCG [JR_SS2_Sub031] (puzzle: Same State 2)”, the “apparent KD of MS2 coat protein” value is, setting by setting: under setting [1], 27.1 nM; under setting [2], 23.3 nM; under setting [3], 22.8 nM.
Take “GAGUAGUUGAAAGGAUAUAGAUUGUUGUAGGAUCUAGAAGGUUCUAACAUGAGGAUCACCCAUGUAGGACUAUUCCUGUGUAUC [Parity 87 - Jieux - Same State NG 1] (Eterna round: R96, puzzle: Same State NG 1)”: the “apparent KD of MS2 coat protein” value is, setting by setting: (input ligand: FMN 200 uM) 11.5 nM; under setting [4], 8.94 nM; (input ligand: none) 13.1 nM.
In the same order, the values of “GAGUAGUUGAAAGGAUAUUGAUUAUUGUAGGAUCAAGAAGGUUUUAACAUGAGGAUCACCCAUGUAGGACUAUAAAUGUGAAAA [Parity 94 - Jieux - Same State NG 1] (Eterna round: R96, puzzle: Same State NG 1)” are 12.2 nM, 10.1 nM and 15.6 nM.
The matching figures for “GAGUGACGAUUAGGAUAUACAGUGAUAAUGAUAGUAGAAGGAAUUGACAUGAGGAUCACCCAUGUAGGACUAAUCCAGAGAGAG [Parity 29 - Jieux - Same State NG 1] (Eterna round: R96, puzzle: Same State NG 1)”: 86.5 nM, 39.9 nM and 57.8 nM.
As to “GAGUGAUGGGUUAGUAACUGCUGGGAAGGACAUGAGGAUCACCCAUGUGAGUAGCGAGCUUGUGCUCGUCUUAUUAG [JR_SHM208A_Sub023] (puzzle: Sensor for hsa-mir-208a)”, the “apparent KD of MS2 coat protein” value is, setting by setting: under setting [1], 207 nM; under setting [2], 114 nM; under setting [3], 379 nM.
With “GAGUGGAGGAGAGGAUAUACAAUGAUAAUCACAGUAGAAGGUUCUAACAUGAGGAUCACCCAUGUAGGACUAUUCCUGAGAGAA [Parity 49 - Jieux - Same State NG 1] (Eterna round: R96, puzzle: Same State NG 1)”, the “apparent KD of MS2 coat protein” value reads like this: (input ligand: FMN 200 uM) 10.2 nM; under setting [4], 9.32 nM; (input ligand: none) 15.7 nM.
As to “GAGUGGCAGUUAGGAUAUAUAGUGAUAAUGAUAAUAGAAGGAACAGACAUGAGGAUCACCCAUGUAGGACUAAUCCAGAGAGAG [Parity 34 - Jieux - Same State NG 1] (Eterna round: R96, puzzle: Same State NG 1)”, the “apparent KD of MS2 coat protein” value is, setting by setting: (input ligand: FMN 200 uM) 32.3 nM; under setting [4], 21.7 nM; (input ligand: none) 28.3 nM.
